Results published in paper PMC7073461.

Biological target: T7 DNAP (complex of T7 gp5 and Escherichia coli thioredoxin) (bacteriophage T7 | Escherichia coli) (UniProt P00581)
Chain of UniProt P00581 (P00581 whole entry, chain 1 of 2): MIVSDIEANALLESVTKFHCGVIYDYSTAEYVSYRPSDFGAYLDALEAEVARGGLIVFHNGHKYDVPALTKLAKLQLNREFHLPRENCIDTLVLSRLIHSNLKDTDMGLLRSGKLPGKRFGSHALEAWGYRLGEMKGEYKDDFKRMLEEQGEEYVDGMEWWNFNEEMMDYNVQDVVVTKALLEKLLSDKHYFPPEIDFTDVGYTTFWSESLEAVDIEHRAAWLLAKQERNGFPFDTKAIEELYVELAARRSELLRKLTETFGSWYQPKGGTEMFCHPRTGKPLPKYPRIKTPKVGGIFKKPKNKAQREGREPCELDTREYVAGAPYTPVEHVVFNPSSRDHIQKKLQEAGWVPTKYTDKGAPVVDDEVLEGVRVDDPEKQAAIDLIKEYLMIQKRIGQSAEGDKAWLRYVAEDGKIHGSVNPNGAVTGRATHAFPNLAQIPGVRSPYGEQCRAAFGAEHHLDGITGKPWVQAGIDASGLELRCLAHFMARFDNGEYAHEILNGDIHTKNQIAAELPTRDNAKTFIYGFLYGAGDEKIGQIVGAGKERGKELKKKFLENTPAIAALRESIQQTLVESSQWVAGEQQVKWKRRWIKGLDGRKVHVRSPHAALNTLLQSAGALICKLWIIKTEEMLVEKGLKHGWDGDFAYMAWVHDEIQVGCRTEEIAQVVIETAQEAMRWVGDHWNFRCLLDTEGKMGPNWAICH
Chain of UniProt P00581 (P0AA25 whole entry, chain 2 of 2, further chain): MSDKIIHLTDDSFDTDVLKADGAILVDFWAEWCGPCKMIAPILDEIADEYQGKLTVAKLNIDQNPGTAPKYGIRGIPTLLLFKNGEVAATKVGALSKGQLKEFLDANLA

Work on “C-tail mutant of T7 gp4A′ (T7 HelicaseΔC17) (enzyme)” yielded a Pol/Exo ratio (nucleotides incorporated per nucleotide excised) during leading strand synthesis on minicircle DNA, 150 μM dVTPs and 500 μM dTTP; 50–60% lower than with the WT T7 helicase of 5.7.
